Test results from patent US20050070694A1 (Eli Lilly, published 2005).

Assays:
[1] = target: Chimera D (human TNFSF13b L53V, K55R, E56Q) (human, UniProt Q9Y275 134-285); experiment: cell-based or functional assay
[2] = target: Chimera E (human TNFSF13b E105K) (human, UniProt Q9Y275 134-285); experiment: cell-based or functional assay
[3] = target: T1, recombinant soluble human TNFSF13b (hTNFSF13b) (human, UniProt Q9Y275 134-285); experiment: cell-based or functional assay
[4] = target: Chimera A (human TNFSF13b L139R, D140N) (human, UniProt Q9Y275 134-285); experiment: cell-based or functional assay
[5] = target: Chimera B (human TNFSF13b K71P, T72I, Y73F) (human, UniProt Q9Y275 134-285); experiment: cell-based or functional assay
[6] = target: T2, murine TNFSF13b (mouse, UniProt Q9WU72 127-309); experiment: sandwich ELISA with 4A5-3.1.1-B4 as both capture and detecting mAb
T2 construct: Used as supernatants of CHO cells or 293 transfectants expressing murine TNFSF13b, and as purified protein; also called Mouse TNFSF13b; mouse TNFSF13b parent molecule

[7] = target: T1, recombinant soluble human TNFSF13b …; experiment: BIAcore 2000 SPR at 25 C; antibody captured by anti-human IgG Fc, hTNFSF13b as analyte from 50 nM in 2-fold dilutions; Langmuir 1:1 model

T2 sequence (Q9WU72 127-309 limits assumed): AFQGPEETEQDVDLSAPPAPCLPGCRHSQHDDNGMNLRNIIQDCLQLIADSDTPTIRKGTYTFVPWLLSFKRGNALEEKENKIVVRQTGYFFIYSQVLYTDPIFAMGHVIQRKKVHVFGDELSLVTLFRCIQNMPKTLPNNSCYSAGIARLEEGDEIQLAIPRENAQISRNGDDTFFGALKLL

- neutralization of proliferation, 293 supernatants, 6 ug/ml of 4A5-3.1.1-B4 [1]: 100%
- neutralization of proliferation, 293 supernatants, 6 ug/ml of 4A5-3.1.1-B4 [2]: 100%
- neutralization of proliferation, 11 ng/ml purified TNFSF13b, 1 ug/ml of 4A5-3.1.1-B4 [3]: 100%
- neutralization of proliferation, 293 supernatants, 6 ug/ml of 4A5-3.1.1-B4 [3]: 100%
- neutralization of proliferation, 11 ng/ml purified TNFSF13b, 1 ug/ml of 4A5-3.1.1-B4 [4]: 100%
- neutralization of proliferation, 293 supernatants, 6 ug/ml of 4A5-3.1.1-B4 [4]: 100%
- neutralization of proliferation, 11 ng/ml purified TNFSF13b, 1 ug/ml of 4A5-3.1.1-B4 [5]: 88%
- neutralization of proliferation, 293 supernatants, 6 ug/ml of 4A5-3.1.1-B4 [5]: 100%
- binding result [6]: no binding
- Kd [7]: 0.038 nM
B1: human antibody 4A5-3.1.1-B4 (antibody, V domains shown)
VH: QVQLQQWGAGLLKPSETLSLTCAVYGGSFSGYYWSWIRQPPGKGLEWIGEINHSGSTNYNPSLKSRVTISVDTSKNQFSLKLSSVTAADTAVYYCARGYYDILTGYYYYFDYWGQGTLVTVSS
VL: EIVLTQSPATLSLSPGERATLSCRASQSVSRYLAWYQQKPGQAPRLLIYDASNRATGIPARFSGSGSGTDSTLTISSLEPEDFAVYYCQQRSNWPRTFGQGTKVEIKR
notes: Hybridoma-derived human monoclonal antibody from HuMAb mice, with a human kappa light chain; also called 4A5 mAb; 4A5-3.1.11-B4
